Where two headings read alike, the source gives them in different places.
Experiments:
BAMT [1] = molecular target: T1, BAMT (Antirrhinum majus, UniProt Q9FYZ9); test: BAMT enzyme assay, substrate specificity of plant-purified BAMT (fraction after MonoQ); assay type: biochemical; conditions: plant BAMT purified through MonoQ, compound tested as substrate instead of benzoic acid
T1 construct: The enzyme activity was purified from upper and lower petal lobes of 5- to 10-day-old snapdragon flowers; from tissue; host or cells: upper and lower petal lobes of 5- to 10-day-old snapdragon flowers
T1 sequence (Q9FYZ9 1-364): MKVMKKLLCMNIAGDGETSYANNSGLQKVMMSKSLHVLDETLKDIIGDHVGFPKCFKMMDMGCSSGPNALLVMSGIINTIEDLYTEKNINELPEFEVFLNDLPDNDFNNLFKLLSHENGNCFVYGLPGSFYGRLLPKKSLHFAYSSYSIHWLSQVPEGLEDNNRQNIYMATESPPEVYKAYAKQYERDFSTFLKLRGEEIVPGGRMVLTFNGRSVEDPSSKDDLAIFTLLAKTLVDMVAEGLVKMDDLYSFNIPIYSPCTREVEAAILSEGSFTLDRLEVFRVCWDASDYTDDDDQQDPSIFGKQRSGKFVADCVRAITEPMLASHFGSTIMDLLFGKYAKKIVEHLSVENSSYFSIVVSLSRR
Excerpt: The raw data (counts per minute) were converted to picokatals (picomoles of product produced per second) based on the specific activity of the substrate and efficiency of counting. Controls included assays with boiled protein extracts and without substrate, and background radioactivity produced in such assays was subtracted from all of the results.
The enzyme activity was purified from upper and lower petal lobes of 5- to 10-day-old snapdragon flowers in a series of chromatographic steps involving a DEAE anion exchange column (DE53, Whatman International, Maidstone, England), phenyl Sepharose 6FF (low sub, level of phenyl substitution 20 μmole per ml gel) column (Pharmacia Biotech, Piscataway, N.J.), and another anion exchange column, MonoQ, on Pharmacia's fast-performance liquid chromatography system. A complete description of the purification protocol is described in Example 7.

BAMT [2] = test: Effectors: BAMT enzyme assay with cations in assay buffer; assay type: biochemical, Antirrhinum majus; conditions: for Stimulation of BAMT activity (factor): cation at 5 mM in assay buffer
E. coli BAMT protein = molecular target: T2, E. coli BAMT protein (Antirrhinum majus, UniProt Q9FYZ9); test: Product inhibition kinetics of methylation reaction by SAH
T2 sequence (Q9FYZ9 1-364): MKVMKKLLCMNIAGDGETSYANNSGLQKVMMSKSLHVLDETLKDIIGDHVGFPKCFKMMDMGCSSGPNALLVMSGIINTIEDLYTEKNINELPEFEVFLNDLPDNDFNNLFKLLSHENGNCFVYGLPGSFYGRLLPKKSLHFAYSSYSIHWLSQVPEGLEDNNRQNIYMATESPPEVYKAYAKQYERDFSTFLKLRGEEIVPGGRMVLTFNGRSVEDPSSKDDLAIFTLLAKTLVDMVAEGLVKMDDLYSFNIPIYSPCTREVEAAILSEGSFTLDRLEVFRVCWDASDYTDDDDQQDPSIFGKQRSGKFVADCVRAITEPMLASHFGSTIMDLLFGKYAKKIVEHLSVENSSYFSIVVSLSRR
Description: Linear regressions were fitted to the data in double-reciprocal plots. Replots of the data were used to determine the kinetic parameters.

BAMT [3] = molecular target: T1, BAMT; test: BAMT activity with different substrates in lysates of E. coli expressing BAMT cDNA; assay type: biochemical; conditions: lysates of E. coli cells expressing BAMT
Excerpt: The raw data (counts per minute) were converted to picokatals (picomoles of product produced per second) based on the specific activity of the substrate and efficiency of counting.
(Yamaguchi et al., 1996).

BAMT [4] = test: Kinetic properties of purified plant and E. coli expressed BAMT proteins; assay type: biochemical, Antirrhinum majus; conditions: purified protein; for KmSAM: Table 4
BAMT [5] = tested on: BAMT
Description: The optimum pH for BAMT activity was determined using two buffer systems. Reactions were carried out in 50 mM Tris-HCl buffer with pH ranging from 6.5 to 9.0 and in 50 mM Tris/Na phosphate/Na citrate buffer with pH ranging from 4.0 to 9.5. Final results are an average of four independent assays.

BAMT [6] = molecular target: T1, BAMT; test: Specific activity of BAMT purified from snapdragon petals; assay type: biochemical; conditions: from 25 g fresh petal material after Mono-Q
Description: After the enzyme was loaded, the column was washed with 3 mL 300 mM KCl in buffer A and eluted with a linear reverse gradient (4 mL) from 300 mM KCl in buffer A to water followed by an additional 11 mL of water. Fractions of 0.7 ml were collected into tubes containing 100 μL 1 M KCl, 100 μL glycerol, 100 μL of 0.5 M Bis-Tris-HCl, pH 6.9 and 1 μL of 14 M β-mercaptoethanol. […] The column was previously equilibrate with 100 mM KCl in buffer A. After loading the protein onto the column, the column was washed with 100 mM KCl in buffer A and the bound protein was eluted using a 10 mL linear (100-400 mM) gradient of KCl in buffer A followed by an additional 5 mL of buffer A containing 400 mM KCl, at flow rate of 0.25 mL/min. The enzyme consistently eluted at about 360 mM KCl. Fractions (0.5 mL each) were collected and protein content and purity were examined by SDS-PAGE gel electrophoresis followed by staining of the gel with Coomassie Brilliant Blue. Fractions which had the largest amount of pure protein were used for N-terminal sequencing, internal peptide sequencing, and initial enzyme characterization.

SAMT = molecular target: T3, SAMT (Clarkia breweri, UniProt Q9SPV4); conditions: Ross et al., 1999, cited from earlier work
T3 sequence (Q9SPV4 1-359): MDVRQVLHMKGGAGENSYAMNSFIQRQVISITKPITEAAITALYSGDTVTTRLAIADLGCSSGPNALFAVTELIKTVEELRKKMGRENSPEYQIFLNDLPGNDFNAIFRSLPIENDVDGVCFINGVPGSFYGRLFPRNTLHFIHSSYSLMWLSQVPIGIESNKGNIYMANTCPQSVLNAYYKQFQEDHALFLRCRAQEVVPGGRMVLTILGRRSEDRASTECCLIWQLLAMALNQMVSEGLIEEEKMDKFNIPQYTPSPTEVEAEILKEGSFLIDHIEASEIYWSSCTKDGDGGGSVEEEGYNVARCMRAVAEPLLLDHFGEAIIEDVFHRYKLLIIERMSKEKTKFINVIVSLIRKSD

[7] = molecular target: the molecule itself; test: gel filtration on Superdex 200-HR (100 kDa native) against SDS-PAGE (49 kDa subunit)
BAMT [8] = conditions: read-out: Km of plant BAMT protein for benzoic acid; Murfitt, et al., 2000; cited from earlier work
BAMT [9] = test: Specific activity of plant BAMT expressed in E. coli BL21 (DE3) cells
Description: The E. coli.-expressed BAMT protein was purified by nickel-based affinity chromatography (2.5 ml bed volume) according to the manufacturer's protocol (Novagen, Inc).

[10] = read-out: KmBA (Km for benzoic acid)

O=C(O)/C=C/c1ccccc1O [2-coumaric acid]
BAMT activity with compound as substrate (BAMT [1]): no activity was detected

O=C(O)/C=C/c1cccc(O)c1 [3-coumaric acid]
BAMT activity with compound as substrate (BAMT [1]): no activity was detected

O=C(O)c1cccc(O)c1 [3-hydroxybenzoic acid]
BAMT activity with compound as substrate (BAMT [1]): no activity was detected

O=C(O)/C=C/c1ccc(O)cc1 [4-coumaric acid]
BAMT activity with compound as substrate (BAMT [1]): no activity was detected

O=C(O)c1ccc(O)cc1 [4-hydroxybenzoic acid]
BAMT activity with compound as substrate (BAMT [1]): no activity was detected

[K+] [K^+]
Stimulation of BAMT activity (factor) (BAMT [2]): 2

[Mg+2] [Mg^2+]
Effect on BAMT activity (BAMT [2]; 5 mM Mg2+ in the assay reaction): not affected

N [NH4^+]
Stimulation of BAMT activity (factor) (BAMT [2]): 2

Nc1ncnc2c1ncn2[C@@H]1O[C@H](CSCC[C@H](N)C(=O)O)[C@@H](O)[C@H]1O [SAH, S-adenosyl-L- homocysteine]
Ki (E. coli BAMT protein; Ki value of SAH for BA, noncompetitive with respect to BA, SAM fixed at 150 μM): 14 µM | Ki (E. coli BAMT protein; Ki value of SAH for SAM, competitive with respect to SAM, BA fixed at 4 mM): 7 µM

OCc1ccccc1 [benzyl alcohol]
BAMT activity with compound as substrate (BAMT [1]): no activity was detected | BAMT activity with compound as substrate (BAMT [1]; listed as benzylalcohol): no activity

O=C(O)c1ccccc1O [salicylic acid]
BAMT activity with compound as substrate (BAMT [1]): no activity was detected | BAMT activity with compound as substrate (BAMT [3]): no activity

O=C(O)/C=C/c1ccccc1 [trans-cinnamic acid]
BAMT activity with compound as substrate (BAMT [1]): no activity was detected | BAMT activity with compound as substrate (BAMT [3]): no activity

S-adenosyl-L-methionine:benzoic acid carboxyl methyltransferase [BAMT]
Km (BAMT [4]; read-out: Km for SAM): 28 µM | Km (BAMT [4]; [10]): 1100 µM | Percent of maximum activity (BAMT [5]; at both pH 6.5 and 8.5): 65% | Enzyme activity as percent of the optimal value (BAMT [5]; at pH 5.5 and 9.5): about 50% | Specific activity of purified BAMT protein (BAMT [6]): 327 pkat/mg protein

B1: SAM:salicylic acid carboxyl methyl transferase (protein, listed as Clarkia breweri)
chain: MDVRQVLHMKGGAGENSYAMNSFIQRQVISITKPITEAAITALYSGDTVTTRLAIADLGCSSGPNALFAVTELIKTVEELRKKMGRENSPEYQIFLNDLPGNDFNAIFRSLPIENDVDGVCFINGVPGSFYGRLFPRNTLHFIHSSYSLMWLSQVPIGIESNKGNIYMANTCPQSVLNAYYKQFQEDHALFLRCRAQEVVPGGRMVLTILGRRSEDRASTECCLIWQLLAMALNQMVSEGLIEEEKMDKFNIPQYTPSPTEVEAEILKEGSFLIDHIEASEIYWSSCTKDGDGGGSVEEEGYNVARCMRAVAEPLLLDHFGEAIIEDVFHRYKLLIIERMSKEKTKFINVIVSLIRKSD
notes: salicylic acid carboxyl methyl transferase from C. breweri
Km (SAMT; read-out: Km value for BA): 190 µM | Km (SAMT; read-out: Km value for SA): 24 µM | Km (SAMT; read-out: Km value for SAM): 9 µM

B2: S-adenosyl-L-methionine:benzoic acid carboxyl methyltransferase (BAMT) from snapdragon (Antirrhinum majus) petals (enzyme)
chain: MKVMKKLLCMNIAGDGETSYANNSGLQKVMMSKSLHVLDETLKDIIGDHVGFPKCFKMMDMGCSSGPNALLVMSGIINTIEDLYTEKNINELPEFEVFLNDLPDNDFNNLFKLLSHENGNCFVYGLPGSFYGRLLPKKSLHFAYSSYSIHWLSQVPEGLEDNNRQNIYMATESPPEVYKAYAKQYERDFSTFLKLRGEEIVPGGRMVLTFNGRSVEDPSSKDDLAIFTLLAKTLVDMVAEGLVKMDDLYSFNIPIYSPCTREVEAAILSEGSFTLDRLEVFRVCWDASDYTDDDDQQDPSIFGKQRSGKFVADCVRAITEPMLASHFGSTIMDLLFGKYAKKIVEHLSVENSSYFSIVVSLSRR
notes: Native protein from upper and lower petal lobes; The native enzyme is reported as a homodimer (100 kDa by gel filtration, 49 kDa on SDS-PAGE); In the immunoblots it was the denatured monomer after SDS-PAGE; also called BAMT protein; plant BAMT
binding result [7]: binds

B3: Plant: BAMT protein purified from upper and lower petal lobes of snapdragon flowers (protein)
chain: MKVMKKLLCMNIAGDGETSYANNSGLQKVMMSKSLHVLDETLKDIIGDHVGFPKCFKMMDMGCSSGPNALLVMSGIINTIEDLYTEKNINELPEFEVFLNDLPDNDFNNLFKLLSHENGNCFVYGLPGSFYGRLLPKKSLHFAYSSYSIHWLSQVPEGLEDNNRQNIYMATESPPEVYKAYAKQYERDFSTFLKLRGEEIVPGGRMVLTFNGRSVEDPSSKDDLAIFTLLAKTLVDMVAEGLVKMDDLYSFNIPIYSPCTREVEAAILSEGSFTLDRLEVFRVCWDASDYTDDDDQQDPSIFGKQRSGKFVADCVRAITEPMLASHFGSTIMDLLFGKYAKKIVEHLSVENSSYFSIVVSLSRR
Vmax (BAMT [4]): 220 pkat/mg | kcat (turnover number of enzyme) (BAMT [4]): 0.02 s⁻¹ | KmSAM (BAMT [4]): 28 μm | Km (BAMT [4]; read-out: Km for SAM): 28 µM | Km (BAMT [4]; [10]): 1100 µM | Km (BAMT [8]): 1000 µM

B4: E. coli Met1: E. coli expressed snapdragon BAMT starting with the first methionine codon, N-terminal 6×His tag (protein, UniProt Q9FYZ9 1-364, looked up)
chain: MKVMKKLLCMNIAGDGETSYANNSGLQKVMMSKSLHVLDETLKDIIGDHVGFPKCFKMMDMGCSSGPNALLVMSGIINTIEDLYTEKNINELPEFEVFLNDLPDNDFNNLFKLLSHENGNCFVYGLPGSFYGRLLPKKSLHFAYSSYSIHWLSQVPEGLEDNNRQNIYMATESPPEVYKAYAKQYERDFSTFLKLRGEEIVPGGRMVLTFNGRSVEDPSSKDDLAIFTLLAKTLVDMVAEGLVKMDDLYSFNIPIYSPCTREVEAAILSEGSFTLDRLEVFRVCWDASDYTDDDDQQDPSIFGKQRSGKFVADCVRAITEPMLASHFGSTIMDLLFGKYAKKIVEHLSVENSSYFSIVVSLSRR
modifications: full-length N-terminal 6xHis tag
Vmax (BAMT [4]): 300 pkat/mg | kcat (turnover number of enzyme) (BAMT [4]): 0.03 s⁻¹ | KmSAM (BAMT [4]): 87 μm | Km (BAMT [4]; read-out: Km for SAM): 87 µM | Km (BAMT [4]; [10]): 1500 µM | Specific activity, crude lysates (BAMT [9]; E. coli BL21 (DE3) after IPTG induction): 9 pkat/mg protein | Specific activity of purified recombinant enzyme (BAMT [9]; purified from E. coli): 135 pcat/mg protein | Specific activity, purified protein (BAMT [9]; purified from E. coli on nickel column): 135 pkat/mg protein

Reference: patent US6558922B1, “Methods and compositions for production of floral scent compounds” (Purdue Research Foundation, priority 1999, dated 2003)
